One molecule from patent CN115466329A (GUANGDONG FAPON PHARMACEUTICAL CO LTD, dated 2022) can be followed below.

One experiment has as its target T1, PD-1-his(ACRO)重组蛋白 (UniProt Q15116 25-167).
T1 construct: Bought (ACRO); not shown: his tag
Put plainly: BLI (ForteBio Octet QKe), PD-1-his loaded on HIS1K sensor, antibody in solution. (In general: In BLI a coated tip is dipped into the sample, and binding shifts an interference pattern.)

The target of experiment [1] is T2, 小鼠PD1 expressed on CHO cells (CHO-mousePD1) (mouse, UniProt Q02242 25-288).
T2 construct: whole, on cells; also called CHO-mPD1
T2 sequence (looked up): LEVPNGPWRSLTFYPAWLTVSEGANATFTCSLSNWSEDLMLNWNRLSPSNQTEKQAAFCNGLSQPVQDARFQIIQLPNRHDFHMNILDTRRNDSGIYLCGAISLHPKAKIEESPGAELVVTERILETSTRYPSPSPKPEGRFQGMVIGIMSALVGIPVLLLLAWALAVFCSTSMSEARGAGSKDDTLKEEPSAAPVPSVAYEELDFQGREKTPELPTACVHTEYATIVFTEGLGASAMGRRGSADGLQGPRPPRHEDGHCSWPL
Put plainly: flow cytometry on CHO-mousePD1 cells. For orientation: A flow cytometer gives signals particle by particle.

Experiment [2] addresses CD28 (ACRO) coated on the ELISA plate (UniProt P10747 19-152). Put plainly: ELISA, antigen coated at 1μg/ml. In general terms: ELISA stands for enzyme-linked immunosorbent assay.
The target in experiment [3] is T3, ICOS (ACRO) coated on the ELISA plate (UniProt Q9Y6W8 21-140).
T3 sequence (looked up): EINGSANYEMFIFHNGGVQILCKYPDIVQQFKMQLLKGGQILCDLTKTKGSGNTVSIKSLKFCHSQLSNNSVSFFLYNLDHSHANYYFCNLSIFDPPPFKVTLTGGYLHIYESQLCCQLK
Put plainly: ELISA, antigen coated at 1μg/ml.

The target of experiment [4] is T4, CTLA-4 (ACRO) coated on the ELISA plate (UniProt P16410 37-162, limits assumed).
T4 sequence (looked up): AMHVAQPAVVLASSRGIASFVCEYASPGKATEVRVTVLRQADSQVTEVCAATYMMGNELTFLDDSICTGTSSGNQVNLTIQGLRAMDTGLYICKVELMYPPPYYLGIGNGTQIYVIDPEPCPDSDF
Put plainly: ELISA, antigen coated at 1μg/ml.

T1 sequence (Q15116 25-167 limits assumed): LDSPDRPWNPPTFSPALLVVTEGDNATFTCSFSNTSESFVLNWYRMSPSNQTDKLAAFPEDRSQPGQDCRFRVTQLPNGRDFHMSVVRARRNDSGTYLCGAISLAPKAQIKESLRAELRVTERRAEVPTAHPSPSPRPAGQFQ
Chain of CD28 (ACRO) coated on the ELISA plate (P10747 19-152 limits assumed): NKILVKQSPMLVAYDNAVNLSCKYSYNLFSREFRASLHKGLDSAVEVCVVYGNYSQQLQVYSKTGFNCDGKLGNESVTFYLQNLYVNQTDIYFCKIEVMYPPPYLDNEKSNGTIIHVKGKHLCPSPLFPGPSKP

B1: 抗PD-1鼠单抗PD-1-76-C2 (antibody, V domains shown)
VH: QIQLVQSGPELKKPGETVKISCKASGYTFTNYGMNWVKQAPGKGLKWMGWINTHTGEPTYADDFKGRFAFSLETSASTAYLQIKNLKNEDVATYFCTKEGEGIGFAYWGQGTLVTVSA
VL: DVLMTQTPLSLPVSLGDQASISCRSSQSIVYSNGKTYLEWYLQKPGQSPKLLIYKVSNRFSGVPDRFSGSGSGTDFTLKISRVEAEDLGVYYCFQGSHVPNTFGGGTKLEIKR
notes: Mouse monoclonal antibody from a hybridoma; an mIgG1 isotype control was used; also called PD-76-C2; 抗人PD-1鼠单抗
What is called Kd is the constant that tells how readily two partners part at equilibrium. Read a low Kd as a tighter complex. Usually koff stands for a measure of how fast the partners let go of each other. Higher therefore signals fast dissociation. As usually defined, the kon is the second-order rate constant of association. Read a low kon as slower complex formation. For B1, in the experiment with PD-1-his(ACRO)重组蛋白, the Kd is < 1 pM. The koff with PD-1-his(ACRO)重组蛋白 was < 1e-07 s⁻¹. Also, in the experiment with PD-1-his(ACRO)重组蛋白, the kon turned out to be 771000 M⁻¹ s⁻¹. The binding result in experiment [1] is reported as “no binding (tested: 初始浓度为10μg/ml)”; in experiment [2], “no binding (tested: 10μg/ml)”; in experiment [3], “no binding (tested: 10μg/ml)”; in experiment [4] it was “no binding (tested: 10μg/ml)”.
